Experimental data: patent publication US20050037420A1 (published 2005)

T1: full-length NSM protein (putative movement protein of Tomato Spotted Wilt Virus) obtained from the IMPACT … (Tomato Spotted Wilt Virus, UniProt P36292 1-301)
T1 construct: mature; also called soluble NSM protein
T1 sequence (looked up): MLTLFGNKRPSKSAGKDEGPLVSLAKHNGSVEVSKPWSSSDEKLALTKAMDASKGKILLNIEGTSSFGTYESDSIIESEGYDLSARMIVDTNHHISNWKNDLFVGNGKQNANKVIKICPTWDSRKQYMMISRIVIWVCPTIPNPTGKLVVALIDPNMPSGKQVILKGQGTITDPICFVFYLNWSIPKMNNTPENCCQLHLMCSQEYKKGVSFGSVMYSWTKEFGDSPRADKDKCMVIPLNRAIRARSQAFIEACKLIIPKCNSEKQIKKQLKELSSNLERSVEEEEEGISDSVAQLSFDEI

B1: scFv N3 (scFv)
scFv: AVTLDESGGGLQTPGGGLSLVCKASGFSFSSYSMGWVRQAPGKGLEWVAGIGSSVIRTYYAPAVKGRATIPRDNGQSTVRLQLNDLRAEDTGTYYCAKESGSGKWFSIGQIDAWGHGTEVTVSSGSTSGSGKPGPGEGSTKGAPALTQPSSVSANPGGTVQITCSGGSGSYGWFQQKSPGSAPVTVIYSSDKRPSDIPSRFSGSKSGSTGTLTITGVQADDEAVYFCGSADSSHLGIFGAGTTLTVLGQP
notes: Soluble scFv, mini-scale (pHEN4II, c-myc tag) or large-scale (pTMZ1, IMAC purified) from E. coli; also called clone N3; not shown: C-terminal c-myc and his-6 tags from the expression vector
B2: scFv N10 (scFv)
scFv: AVTLDESGGGLQTPGGGLSLVCKASGFSFSSYSMGWVRQAPGKGLEWVAGIGSSVIRTYYAPAVKGRATIPRDNGQSTVRLQLNDLRAEDTGTYYCAKESGSGKWFSIGQIDAWGHGTEVTVSSGSTSGSGKPGPGEGSTKGAPALTQPSSVSANPGGTVQITCSGGSGNYGWFQQKSPGSAPVTVIYSSDKRPSDIPSRFSGSKSGSTGTLTITGVQADDEAVYFCGSADSSHLGIFGAGTTLTVLGQP
notes: Soluble scFv, mini-scale (pHEN4II, c-myc tag) or large-scale (pTMZ1, IMAC purified) from E. coli; also called clone N10; not shown: C-terminal c-myc and his-6 tags from the expression vector
B3: scFv N12 (scFv)
scFv: AVTLDESGGGLQTPGGGLSLVCKASGFDFSSYDMVWVRQAPGKGLEWVAGISSGSGPNYGAAVKGRATISRDNGQSTVRLQLNNLRAEDTATYYCAKNEGADWCGHYYCSVAYIDAWGHGTEVTVSSGSTSGSGKPGPGEGSTKGAPALTQPSSVSANPGETVKITCSGGSGDHYGWFQQKSPGSAPVTVIYNNDNRPSDIPSRFSGSKSGSTHTLTITGVQVEDEAVYFCGNRDSSAGIFGAGTTLTVLGQP
notes: Soluble scFv, mini-scale (pHEN4II, c-myc tag) or large-scale (pTMZ1, IMAC purified) from E. coli; also called clone N12; not shown: C-terminal c-myc and his-6 tags from the expression vector
B4: scFv N5 (scFv)
scFv: AVTLDESGGGLQTPGGGLSLVCKASGFDFSSYDMVWVRQAPGKGLEWVAGISSGSVPNYGAAVKGRATISRDNGQSTVRLQLNNLRAEDTATYYCAKNEGADWCGHYYCSVAYIDAWGHGTEVTVSSGSTSGSGKPGPGEGSTKGAPALTQPSSVSANPGETVKITCSGGSGDHYGWFQQKSPGSAPVTVIYKNENRPSDIPSRFSGSKSGSTHTLTITGVQVEDEAVYFCGNRDSSAGIFGAGTTLTVLGQP
notes: Soluble scFv, mini-scale (pHEN4II, c-myc tag) or large-scale (pTMZ1, IMAC purified) from E. coli; also called clone N5; not shown: C-terminal c-myc and his-6 tags from the expression vector

target: T1, full-length NSM protein (putative …); assay: ELISA, full-length NSM coated, mini-scale expressed soluble scFv; vector control OD 0.02
Source text: NSM-specific clones were identified by ELISA using mini-scale expressed soluble scFvs and full-length NSM protein for coating.

Binder | OD410 nm [OD]
B1 | 0.2
B2 | 0.2
B3 | 0.2
B4 | 0.2
